Source: patent US20090099029A1, “Methods and substrates for conducting assays” (Invitrogen Corporation, priority 2005, published 2009)

Tested on: kinases of Table 6 on Myelin Basic Protein (MBP)
Assay: Kinase assay using MBP substrate, ProQ Diamond stain (Table 6)
Assay type: biochemical
Details: kinase printed on MBP-coated slide; 20 uM ATP, 30° C.; ProQ Diamond Microarray Stain; graded Strong/Weak/Negative
Protocol: In this illustrative example, four-well slides were designed with a hydrophobic mask surrounding 4-wells of aldehyde- or epoxy-coated glass (smooth or ES grade; Erie Scientific (Portsmouth, N.H.)). […] Bovine, dephosphorylated, Myelin Basic Protein (MBP) was purchased from Upstate Biotechnology (#13-110). MBP was diluted to 1 mg/ml in PBS, applied to the slide surface, covered with a coverslip, and left overnight at 4° C. to coat the slide with the MBP. Slides were washed 3 times with water and spun dry before printing.
Kinases were purchased from Panvera (Invitrogen, Carlsbad, Calif.), diluted in printing buffer (50 mM Tris pH 7.5, 25% glyercol, 0.05% TritonX-100, 2 mM DTT) and deposited using a GeneMachine OmniGrid100. Slides were stored at −20° C.
Reactions were performed following removal of the slide from the freezer. Reaction buffer (20 mM HEPES pH 7.5, 4 mM MgCl2, 2 mM DTT, 20 uM ATP, 5% DMSO) was added with or without inhibitor, a coverslip applied, and the slide placed at 30° C. for the appropriate reaction time. The slide was washed with water to stop the reaction (3 times) and spun dry. ProQ Diamond Microarray Stain (Invitrogen #P33706) was applied, covered with a coverslip, and the slide was incubated in the dark at room temperature for 30 minutes. The slide was destained and washed three times with water, and spun dry.

Row | Molecule | MBP Kinase Activity
1 | ABL1 | Weak
2 | ADRBK1(GRK2) | Negative
3 | AKT1 | Strong
4 | BLK | Weak
5 | CDK5/p35 | Strong
6 | CHEK2 | Strong
7 | CLK1 | Strong
8 | CLK3 | Strong
9 | CLK4 | Negative
10 | CSNK1E(CK1eps) | Negative
11 | CSNK1G1(CK1gamma1) | Negative
12 | CSNK1G2 | Negative
13 | CSNK1G3 | Weak
14 | CSNK2A1(CK2alpha1) | Strong
15 | EPHA7 | Weak
16 | ERBB2 | Negative
17 | FGFR1 | Strong
18 | FGR | Weak
19 | FYN | Strong
20 | GRK5 | Negative
21 | GSK3B | Negative

Row | Molecule | MBP Kinase Activity
22 | HCK | Strong
23 | IKBKB | Weak
24 | INSR | Strong
25 | KDR(VEGFR2) | Strong
26 | LCK | Strong
27 | LYNA | Weak
28 | MAP2K1(MEK1) | Negative
29 | MAP2K2(MEK2) | Negative
30 | MAP4K5(KHS1) | Negative
31 | MAPK1(ERK2) | Strong
32 | MAPK3(ERK1) | Strong
33 | MAPKAPK2 | Strong
34 | MLCK | Negative
35 | MST4 | Negative
36 | NEK6 | Negative
37 | NEK7 | Negative
38 | NTRK1 | Strong
39 | NTRK2 | Strong
40 | NTRK3 | Strong
41 | PHKG1 | Negative
42 | PIM1 | Strong

Row | Molecule | MBP Kinase Activity
43 | PIM2 | Weak
44 | PKN1(PRK1) | Strong
45 | PLK1 | Negative
46 | PRKCA | Strong
47 | PRKCB1 | Strong
48 | PRKCB2 | Strong
49 | PRKCD | Strong
50 | PRKCG | Strong
51 | PRKCI | Strong
52 | PRKCQ | Strong
53 | PTK6(BRK) | Strong
54 | RPS6KA3(RSK2) | Strong
55 | RPS6KA5(MSK1) | Weak
56 | STK6(AuroraA) | Weak
57 | STK24(MST3) | Weak
58 | STK25(YSK1) | Strong
59 | TBK1 | Strong
60 | WEE1 | Negative
61 | YES1 | Weak

Tested on: 39 kinases (Table 4)
Assay: not given
Details: known general specificities of the inhibitors; cited from earlier work

Row | Molecule | General Specificity
62 | Oc1ccc(-c2nc(-c3ccncc3)c(-c3ccc(F)cc3)[nH]2)cc1 [SB 202190] | Serine/threonine
